Reference: patent US20070232789A1

Assays:
[1] = target: low-density lipoprotein receptor-related protein (LRP), purified (human) (UniProt Q07954); assay: homologous displacement on LRP-coated wells
[2] = target: low-density lipoprotein receptor-related protein (LRP), purified (human) (UniProt Q07954); assay: homologous displacement of ^125I-fVIII (1 nM) by unlabeled fVIII on LRP-coated wells, LIGAND fit
[3] = target: low-density lipoprotein receptor-related protein (LRP), purified (human) (UniProt Q07954); assay: homologous ligand displacement: 125I-fVIII (1 nM) on LRP-coated microtiter wells, competitor unlabeled fVIII
[4] = target: A1/A3-C1-C2 heterodimer of factor VIII, plasma-derived (human) (UniProt P00451); assay: cell-based or functional assay
[5] = target: low-density lipoprotein receptor-related protein (LRP), purified (human) (UniProt Q07954); assay: SPR, BIAcore 3000, one-site model, KD = koff/kon
[6] = target: low-density lipoprotein receptor-related protein (LRP), purified (human) (UniProt Q07954); assay: SPR, BIAcore 3000

A1/A3-C1-C2 heterodimer of factor VIII, plasma-derived (human), sequence (P00451 20-391, chain 1 of 2): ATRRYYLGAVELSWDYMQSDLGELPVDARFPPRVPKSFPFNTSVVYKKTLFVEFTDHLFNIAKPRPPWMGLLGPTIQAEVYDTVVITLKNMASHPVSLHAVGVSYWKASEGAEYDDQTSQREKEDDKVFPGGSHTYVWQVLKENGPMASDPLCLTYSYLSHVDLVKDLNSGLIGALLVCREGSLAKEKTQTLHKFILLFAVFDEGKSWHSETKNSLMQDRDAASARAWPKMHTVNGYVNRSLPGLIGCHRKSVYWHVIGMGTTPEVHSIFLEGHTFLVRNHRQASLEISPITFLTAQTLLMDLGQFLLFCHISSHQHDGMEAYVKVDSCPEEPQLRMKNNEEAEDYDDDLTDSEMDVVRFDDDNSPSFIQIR
A1/A3-C1-C2 heterodimer of factor VIII, plasma-derived (human), sequence (P00451 1709-2351, chain 2 of 2): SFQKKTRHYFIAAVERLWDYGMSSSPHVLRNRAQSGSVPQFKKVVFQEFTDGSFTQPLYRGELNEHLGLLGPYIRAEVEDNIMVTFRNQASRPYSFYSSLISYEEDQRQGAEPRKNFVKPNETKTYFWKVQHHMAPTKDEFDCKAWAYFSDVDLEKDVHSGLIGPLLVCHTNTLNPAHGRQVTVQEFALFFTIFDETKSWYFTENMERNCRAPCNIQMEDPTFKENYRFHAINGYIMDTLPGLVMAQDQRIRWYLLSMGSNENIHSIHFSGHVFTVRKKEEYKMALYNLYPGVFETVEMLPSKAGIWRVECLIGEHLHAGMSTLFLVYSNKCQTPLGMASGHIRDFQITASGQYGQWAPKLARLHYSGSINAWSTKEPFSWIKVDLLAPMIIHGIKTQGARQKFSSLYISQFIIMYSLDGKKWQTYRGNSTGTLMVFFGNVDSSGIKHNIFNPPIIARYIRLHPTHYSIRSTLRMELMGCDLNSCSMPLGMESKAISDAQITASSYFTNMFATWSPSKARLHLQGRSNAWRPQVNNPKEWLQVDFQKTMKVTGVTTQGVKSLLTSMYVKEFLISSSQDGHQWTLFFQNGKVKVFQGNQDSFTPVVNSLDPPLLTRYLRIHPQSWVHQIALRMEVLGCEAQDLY

Substance	percent of binding competed by an excess of unlabeled fVIII [1] [%]	Kd [2] [µM]	IC50 (read off the curve) [3] [µM]	Activity of reconstituted FVIIIa (% of wt activity) (% of wt activity) [4]	Kd [5] [µM]	fold decrease of affinity against wt-A2 [6] [fold]
factor VIII purified from therapeutic concentrates (Method M, American Red Cross), P00451 20-1667; P00451 1668-2351	> 90	0.116	0.1			
recombinant A2 mutant #2 (Lys-377 to Ala) (from UniProt P00451 392-759)				365	0.018	
recombinant A2 mutant #3 (His-378 to Ala) (from UniProt P00451 392-759)				417	0.019	
recombinant A2 mutant #4 (Lys-380 to Ala) (from UniProt P00451 392-759)				291	0.047	
recombinant A2 mutant #5 (Lys-466 to Ala) (from UniProt P00451 392-759)				130	0.6	28
recombinant A2 mutant #6 (Arg-471 to Ala) (from UniProt P00451 392-759)				34.6	0.4	19
recombinant A2 mutant #7 (Arg-484 to Ala) (from UniProt P00451 392-759)				64.9	0.32	15
